T1: human CD20 on the cell surface (human, UniProt P11836 1-297)
T1 construct: whole, on cells; On B-lymphoma lines, primary B cells, K562 CD20 or HEK293 transfectants; also called MS4A1; B-lymphocyte antigen CD20
T1 sequence (looked up): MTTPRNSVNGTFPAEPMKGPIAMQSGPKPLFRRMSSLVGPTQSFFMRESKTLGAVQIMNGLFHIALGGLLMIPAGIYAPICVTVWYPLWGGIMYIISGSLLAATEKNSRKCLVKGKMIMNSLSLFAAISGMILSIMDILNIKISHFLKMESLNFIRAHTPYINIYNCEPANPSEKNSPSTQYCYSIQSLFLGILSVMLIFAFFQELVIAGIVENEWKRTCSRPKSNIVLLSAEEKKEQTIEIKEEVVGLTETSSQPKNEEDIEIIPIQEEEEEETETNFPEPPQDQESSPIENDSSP

B1: C923B38 CD79bxCD20xCD3 trispecific antibody (other)
heavy: QVQLQESGPGLVKPSETLSLTCSVSGASISSFYWSWIRQPADEGLEWIGRISPSGKTNYIPSLKSRIIMSLDASKNQFSLRLNSVTAADTAMYYCARGEYSGTYSYSFDVWGQGTMVTVSSASTKGPSVFPLAPSSKSTSGGTAALGCLVKDYFPEPVTVSWNSGALTSGVHTFPAVLQSSGLYSLSSVVTVPSSSLGTQTYICNVNHKPSNTKVDKKVEPKSCDKTHTCPPCPAPEAAGGPSVFLFPPKPKDTLMISRTPEVTCVVVSVSHEDPEVKFNWYVDGVEVHNAKTKPREEQYNSTYRVVSVLTVLHQDWLNGKEYKCKVSNKALPAPIEKTISKAKGQPREPQVYTLPPSREEMTKNQVSLSCAVKGFYPSDIAVEWESNGQPENNYKTTPPVLDSDGSFFLVSKLTVDKSRWQQGNVFSCSVMHEALHNRFTQKSLSLSPGK
light: DIVMTQSPLSLSVTPGEPASISCRSSESLLDSEDGNTYLDWFLQKPGQSPQLLIYTLSYRASGVPDRFSGSGSDTDFTLHISSLEAEDVGLYYCMQRMEFPLTFGQGTKVEIKRTVAAPSVFIFPPSDEQLKSGTASVVCLLNNFYPREAKVQWKVDNALQSGNSQESVTEQDSKDSTYSLSSTLTLSKADYEKHKVYACEVTHQGLSSPVTKSFNRGEC
chain: EIVLTQSPATLSASPGERVTLSCSASSSVSYMNWYQQKPGQAPRRWIYDSSKLASGVPARFSGSGSGRDYTLTISSLEPEDFAVYYCQQWSRNPPTFGGGTKVEIKGGSEGKSSGSGSESKSTGGSQVQLVQSGAEVKKPGSSVKVSCKASGYTFTRSTMHWVKQAPGQGLEWIGYINPSSAYTNYNQKFQGRVTLTADKSTSTAYMELSSLRSEDTAVYYCASPQVHYDYAGFPYWGQGTLVTVSSEPKSSDKTHTCPPCPAPEAAGGPSVFLFPPKPKDTLMISRTPEVTCVVVSVSHEDPEVKFNWYVDGVEVHNAKTKPREEQYNSTYRVVSVLTVLHQDWLNGKEYKCKVSNKALPAPIEKTISKAKGQPREPQVYTLPPSREEMTKNQVSLWCLVKGFYPSDIAVEWESNGQPENNYKTTPPVLDSDGSFFLYSKLTVDKSRWQQGNVFSCSVMHEALHNHYTQKSLSLSPGKGGSEGKSSGSGSESKSTGGSAIQLTQSPSSLSASVGDRVTITCRASSSVSYIHWFQQKPGKAPKPLIYATSNLASGVPSRFSGSGSGTDFTLTISSLQPEDFATYYCQQWTSNPPTFGQGTKLEIKGGSEGKSSGSGSESKSTGGSQVQLVQSGAEVKKPGSSVKVSCKASGYTFTSYNMHWVRQAPGQGLEWMGAIYPGNGDTSYAQKFQGRVTITADKSTSTAYMELSSLRSEDTAVYYCARSTYYGGDWYFNVWGQGTLVTVSS
notes: Trispecific IgG1: CD79b Fab arm (HC1/LC) plus one chain CD3 scFv-Fc-CD20 scFv; also called CD9B374 / CD3B2030-N106A-scFv-LH-C20B22
B2: CD20 binding arm of C923B169 tested as scFv (scFv)
chain: EIVLTQSPATLSLSPGERATLSCRASLSVSSMHWYQQKPGQAPRLLIYATSNLASGIPARFSGSGSGTDFTLTISSLEPEDFAVYYCQQWIFNPPTFGGGTKVEIKGGSEGKSSGSGSESKSTGGSQVQLVQSGAEVKKPGSSVKVSCKASGYTFSSYNMHWVRQAPGQGLEWMGAIYPGAGDTSYAQKFQGRVTITADESTSTAYMELSSLRSEDTAVYYCARSNYYGSSGWYFDVWGKGTTVTVSS

Columns and labels:
[1] = molecular target: T2, cynomolgus monkey CD79b antigen (cynomolgus monkey); assay: SPR
T2 construct: also called cyno CD79b; CD9W1.001

[2] = molecular target: T1, human CD20 on the cell surface; assay: cell-based binding on CARNAVAL cells

Binder	Kd [1]	EC50 [2]
B1	> 3000 nM	
B2		16 nM

— US20250043019A1 (Janssen / Centocor, published 2025)
